From patent US20180094055A1 (Amgen, published 2018) come the findings set out here.

The target in assay [1] is T1, human PAC1 (form used for the Kd determination not stated) (human, UniProt P41586 21-468, limits assumed).
T1 construct: also called hPAC1
T1 sequence (looked up): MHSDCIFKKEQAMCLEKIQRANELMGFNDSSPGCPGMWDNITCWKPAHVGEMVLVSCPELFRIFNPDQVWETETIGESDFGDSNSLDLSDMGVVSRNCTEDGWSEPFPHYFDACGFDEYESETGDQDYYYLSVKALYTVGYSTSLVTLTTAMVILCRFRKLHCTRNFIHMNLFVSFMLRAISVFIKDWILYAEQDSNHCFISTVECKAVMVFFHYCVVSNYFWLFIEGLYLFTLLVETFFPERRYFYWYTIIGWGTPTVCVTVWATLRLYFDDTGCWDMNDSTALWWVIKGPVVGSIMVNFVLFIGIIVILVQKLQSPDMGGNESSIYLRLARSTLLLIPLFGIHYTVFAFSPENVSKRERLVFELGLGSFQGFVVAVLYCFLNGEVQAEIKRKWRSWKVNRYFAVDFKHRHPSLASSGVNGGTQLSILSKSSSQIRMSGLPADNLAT
Briefly: method not described (Table 8, 'Kd (nM)').

Assay [2] concerns the target T2, human pituitary adenylate cyclase-activating polypeptide type I receptor, endogenously expressed on SH-SY-5Y … (human, UniProt P41586 21-468).
T2 sequence (looked up): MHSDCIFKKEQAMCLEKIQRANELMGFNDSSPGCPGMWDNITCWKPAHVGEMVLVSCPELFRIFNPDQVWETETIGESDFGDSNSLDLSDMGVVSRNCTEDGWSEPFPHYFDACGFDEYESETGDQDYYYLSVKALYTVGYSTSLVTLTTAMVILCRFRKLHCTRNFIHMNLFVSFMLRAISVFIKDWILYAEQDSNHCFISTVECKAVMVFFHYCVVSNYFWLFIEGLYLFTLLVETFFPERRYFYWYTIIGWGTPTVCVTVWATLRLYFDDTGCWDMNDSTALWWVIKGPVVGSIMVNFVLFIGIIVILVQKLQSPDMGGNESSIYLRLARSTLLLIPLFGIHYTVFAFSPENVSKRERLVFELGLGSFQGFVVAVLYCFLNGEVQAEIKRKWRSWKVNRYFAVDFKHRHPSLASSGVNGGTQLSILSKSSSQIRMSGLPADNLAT
As to the kind of experiment: cell-based or functional assay.

B1: Anti-hPAC1 antibody W (antibody, human IgG2, kappa, V domains shown)
VH: QVQLQESGPGLVKPSQTLSLTCTVSGGSISSGGYYWSWIRQHPGKGLEWIGYIYYSGNTYYNPSLKSRVTISGDTSKNQFSLKLRSVTAADTAVYYCTRGGAARGMDVWGQGTTVTVSS
VL: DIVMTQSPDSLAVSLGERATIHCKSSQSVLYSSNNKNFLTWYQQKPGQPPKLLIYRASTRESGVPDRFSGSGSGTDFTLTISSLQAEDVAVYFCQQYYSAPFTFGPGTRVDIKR
notes: also called Ab ID W
In general, Kd refers to a measure of binding affinity in units of concentration. A lower Kd goes with tighter binding. For the molecule B1, the Kd in assay [1] is 0.189 nM. In assay [2], the “Antagonist IC50 (nM), PAC1 mediated cAMP assay (LANCE), PACAP-38 1 nM stimulation” value worked out at 28 nM.

B2: Anti-hPAC1 antibody L (antibody, human IgG2, kappa, V domains shown)
VH: QVQLVESGGGVVQPGRSLRLSCAASGFTFSRYAMHWVRQASGKGLEWVAVISYDGSNKYYADSVKGRFTISRDNSKNTLYLLMSSLRAEDTAVFYCARGYDILTGYPDYWGQGTLVTVSS
VL: DIQLTQSPSFLSASVGDRVTITCRASQSIGRSLHWYQQKPGKAPKLLFKYASQSLSGVPSRFSGSGSGTEFTLTISSLQPEDFATYYCHQSSRLPFTFGPGTKVDIKR
notes: also called Ab ID L
In assay [1], B2 returned a Kd of 0.024 nM. Moreover, the “Antagonist IC50 (nM), PAC1 mediated cAMP assay (LANCE), PACAP-38 1 nM stimulation” value in assay [2] was 4 nM.
